Measured values taken from paper PMC4837458.

Key:
[1] = test system: T1, dPPR-U8C2 D348S;D383S (designed (synthetic; NTD/CTD from Zea mays PPR10)), PDB:5I9G_1; assay: EMSA; conditions: 5 mM Mg2+; apparent Kd; EMSA: 25 mM Tris-HCl pH 8.0, 5 mM MgCl2, 5 mM DTT, 0.1 mg/ml BSA, 50 ng/ml heparin, 10% glycerol, ~2 nM 32P-RNA, 20 min on ice
T1 sequence: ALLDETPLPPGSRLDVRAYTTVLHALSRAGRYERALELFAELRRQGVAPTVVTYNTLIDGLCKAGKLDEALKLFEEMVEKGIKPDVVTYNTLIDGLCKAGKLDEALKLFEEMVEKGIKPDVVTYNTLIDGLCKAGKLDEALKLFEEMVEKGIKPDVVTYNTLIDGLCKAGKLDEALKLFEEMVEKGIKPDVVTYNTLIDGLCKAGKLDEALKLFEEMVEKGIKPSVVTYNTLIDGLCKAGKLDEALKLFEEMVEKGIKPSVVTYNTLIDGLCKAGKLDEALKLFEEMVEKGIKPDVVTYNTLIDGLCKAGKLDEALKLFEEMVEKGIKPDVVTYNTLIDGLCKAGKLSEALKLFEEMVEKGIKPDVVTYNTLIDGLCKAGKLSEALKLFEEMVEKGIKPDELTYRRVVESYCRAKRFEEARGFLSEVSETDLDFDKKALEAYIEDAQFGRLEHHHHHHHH

[2] = test system: dPPR-NN (designed (synthetic; NTD/CTD from Zea mays PPR10)); assay: EMSA; conditions: 5 mM Mg2+; apparent Kd; EMSA: 25 mM Tris-HCl pH 8.0, 5 mM MgCl2, 5 mM DTT, 0.1 mg/ml BSA, 50 ng/ml heparin, 10% glycerol, ~2 nM 32P-RNA, 20 min on ice
[3] = test system: dPPR-4 (designed (synthetic; NTD/CTD from Zea mays PPR10)); assay: EMSA; conditions: 5 mM Mg2+; apparent Kd; EMSA: 25 mM Tris-HCl pH 8.0, 5 mM MgCl2, 5 mM DTT, 0.1 mg/ml BSA, 50 ng/ml heparin, 10% glycerol, ~2 nM 32P-RNA, 20 min on ice
[4] = test system: dPPR-SD (designed (synthetic; NTD/CTD from Zea mays PPR10)); assay: EMSA; conditions: 5 mM Mg2+; apparent Kd; EMSA: 25 mM Tris-HCl pH 8.0, 5 mM MgCl2, 5 mM DTT, 0.1 mg/ml BSA, 50 ng/ml heparin, 10% glycerol, ~2 nM 32P-RNA, 20 min on ice
[5] = test system: dPPR-U8G2 N318T;N353T (designed (synthetic; NTD/CTD from Zea mays PPR10)), PDB:5I9H_1; assay: EMSA; conditions: 5 mM Mg2+; apparent Kd; EMSA: 25 mM Tris-HCl pH 8.0, 5 mM MgCl2, 5 mM DTT, 0.1 mg/ml BSA, 50 ng/ml heparin, 10% glycerol, ~2 nM 32P-RNA, 20 min on ice
[6] = test system: dPPR-U8A2 N318S;D348N;N353S;D383N (designed (synthetic; NTD/CTD from Zea mays PPR10)), PDB:5I9D_1; assay: EMSA; conditions: 5 mM Mg2+; apparent Kd; EMSA: 25 mM Tris-HCl pH 8.0, 5 mM MgCl2, 5 mM DTT, 0.1 mg/ml BSA, 50 ng/ml heparin, 10% glycerol, ~2 nM 32P-RNA, 20 min on ice
[7] = test system: dPPR-TN (designed (synthetic; NTD/CTD from Zea mays PPR10)); assay: EMSA; conditions: 5 mM Mg2+; apparent Kd; EMSA: 25 mM Tris-HCl pH 8.0, 5 mM MgCl2, 5 mM DTT, 0.1 mg/ml BSA, 50 ng/ml heparin, 10% glycerol, ~2 nM 32P-RNA, 20 min on ice
dPPR-U10 [8] = biological target: T2, dPPR-U10 (designed (synthetic; NTD/CTD from Zea …, UniProt PDB:5I9F_1 1-460); assay: EMSA; 5 mM Mg2+; apparent Kd; EMSA: 25 mM Tris-HCl pH 8.0, 5 mM MgCl2, 5 mM DTT, 0.1 mg/ml BSA, 50 ng/ml heparin, 10% glycerol, ~2 nM 32P-RNA, 20 min on ice
T2 chain: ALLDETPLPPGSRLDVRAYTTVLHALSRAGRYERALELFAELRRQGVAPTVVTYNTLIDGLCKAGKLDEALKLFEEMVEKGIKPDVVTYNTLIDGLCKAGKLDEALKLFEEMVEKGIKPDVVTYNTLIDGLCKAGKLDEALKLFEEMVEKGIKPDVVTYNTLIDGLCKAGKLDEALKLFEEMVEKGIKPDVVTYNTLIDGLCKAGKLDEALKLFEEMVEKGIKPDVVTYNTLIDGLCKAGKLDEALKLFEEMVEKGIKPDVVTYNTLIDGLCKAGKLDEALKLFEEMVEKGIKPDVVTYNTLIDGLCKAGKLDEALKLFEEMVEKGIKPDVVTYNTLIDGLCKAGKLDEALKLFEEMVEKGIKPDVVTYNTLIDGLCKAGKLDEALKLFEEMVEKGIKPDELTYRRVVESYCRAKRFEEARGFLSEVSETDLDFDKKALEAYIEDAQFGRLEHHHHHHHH

dPPR-U8C2 [9] = biological target: T3, dPPR-U8C2 (designed (synthetic; NTD/CTD from Zea …, UniProt PDB:5I9G_1 1-460, D348S;D383S); assay: EMSA; C5,C6 to U; EMSA: 25 mM Tris-HCl pH 8.0, 5 mM MgCl2, 5 mM DTT, 0.1 mg/ml BSA, 50 ng/ml heparin, 10% glycerol, ~2 nM 32P-RNA, 20 min on ice
T3 sequence: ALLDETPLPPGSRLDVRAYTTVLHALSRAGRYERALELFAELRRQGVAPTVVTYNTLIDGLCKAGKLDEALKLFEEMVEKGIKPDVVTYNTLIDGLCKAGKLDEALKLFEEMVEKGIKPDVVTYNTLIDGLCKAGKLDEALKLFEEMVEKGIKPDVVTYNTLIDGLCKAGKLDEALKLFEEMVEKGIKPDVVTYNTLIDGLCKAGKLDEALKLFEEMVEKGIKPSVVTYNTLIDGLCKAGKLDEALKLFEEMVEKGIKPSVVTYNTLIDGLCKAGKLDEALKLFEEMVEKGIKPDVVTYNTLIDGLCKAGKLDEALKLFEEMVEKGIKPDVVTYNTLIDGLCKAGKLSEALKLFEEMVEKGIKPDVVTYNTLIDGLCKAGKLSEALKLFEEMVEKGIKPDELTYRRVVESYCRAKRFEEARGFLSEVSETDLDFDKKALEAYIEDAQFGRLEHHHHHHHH

dPPR-U10 [10] = biological target: T2, dPPR-U10; assay: X-ray crystallography; 2.20 A; EMSA: 25 mM Tris-HCl pH 8.0, 5 mM MgCl2, 5 mM DTT, 0.1 mg/ml BSA, 50 ng/ml heparin, 10% glycerol, ~2 nM 32P-RNA, 20 min on ice
dPPR-U8C2 [11] = biological target: T3, dPPR-U8C2; assay: X-ray crystallography; 2.30 A; EMSA: 25 mM Tris-HCl pH 8.0, 5 mM MgCl2, 5 mM DTT, 0.1 mg/ml BSA, 50 ng/ml heparin, 10% glycerol, ~2 nM 32P-RNA, 20 min on ice

UUUUCCUUUU [U8C2 target] showed a Kd [1] of 18.5 nM and a Kd [2] of 14.6 nM.

With UUCCAGAU [dPPR-4 target] the Kd [3] was 24.6 nM.

With UUUUGGUUUU [U8G2 target] the Kd [4] was 31.1 nM and the Kd [5] was 29.8 nM.

In the case of UUUUAAUUUU [U8A2 target], the Kd [6] is reported as 23.8 nM and the Kd [7] is reported as 58.9 nM.

UUUUUUUUUU [U10 target] showed a Kd [2] of 15.9 nM.

With UUUUUUUUUU (ssRNA) [U10 target] the Kd (dPPR-U10 [8]) was 74.3 ± 7.9 nM and the binding result (dPPR-U8C2 [9]) was “no binding”.

GGGGUUUUUUUUUUCCCC (ssRNA) [18-nt U10 crystal RNA]: binds (dPPR-U10 [10]).

GGGGUUUUCCUUUUCCCC (ssRNA) [18-nt U8C2 crystal RNA]: binds (dPPR-U8C2 [11]).
